{"source": "patent US11890364B2", "about": "“Composition for prevention or treatment of hair loss” (GOOD T CELLS, INC., priority 2017, dated 2024)", "target": "T1, caspase-1 (Homo sapiens, UniProt P29466)", "T1 sequence (P29466 120-297 limits assumed)": "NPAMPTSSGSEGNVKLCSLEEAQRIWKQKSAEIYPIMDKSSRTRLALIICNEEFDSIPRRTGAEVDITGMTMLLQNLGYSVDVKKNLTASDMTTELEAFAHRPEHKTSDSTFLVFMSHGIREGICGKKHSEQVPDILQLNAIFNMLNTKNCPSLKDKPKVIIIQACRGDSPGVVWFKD", "T1 sequence (P29466 317-404 limits assumed)": "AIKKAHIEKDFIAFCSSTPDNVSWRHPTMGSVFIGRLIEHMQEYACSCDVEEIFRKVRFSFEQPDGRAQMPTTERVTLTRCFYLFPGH", "test": "Caspase-1 treatment followed by HPLC analysis", "assay_type": "biochemical", "conditions": "treated with caspase-1, HPLC analysis, FIG. 2", "method": "Compound E1 obtained in Example 1, Compound E7 obtained in Example 7, and finasteride were prepared. Then, these compounds were treated with caspase-1, and analyzed with high performance liquid chromatography (HPLC). The results are illustrated in FIGS. 2 and 3.", "note": "Ends that are not written are not given here.", "data": [{"substance": "Compound E7: finasteride linked via caspase-1 cleavage site (YVAD) and linkers to CTP+cysteine peptide (SEQ ID NO: 6) (YGRRARRRRRRC; also: finasteride linked via caspase-1 cleavage site (YVAD) and linkers, attachment site not given here)", "values": [{"measurement": "cleavage of the compound on treatment with caspase-1 (HPLC)", "value": "cleaved into two moieties, that is, finasteride and the protein transduction domain"}]}]}
